Assay results taken from paper PMC10996255.

Biological target: Recombinant human HER2 (human) (UniProt P04626)
Assay: ELISA; recombinant HER2 (50 ng/well) coated in PBS pH 7.4; scFv or conjugate 250 to 0.005 nM, 4-fold dilutions in 5% skim milk in PBST, room temperature; detected by rabbit anti-His-tag antibody and HRP-linked anti-rabbit IgG

- EC50: 1.47 nM
Substance: 4D5scFv-G178-HSA (from UniProt P02768 25-609)
